Source: patent US7585511

Tests used:
[1] = target: N-terminal His-tagged version of serum resistance associated protein (SRA) (aa 1-251), wild type (Trypanosoma brucei rhodesiense); assay: pull-down of in vitro synthesized [35S]-apoL-I mutant with His-SRA on Ni-NTA beads, scintillation counting
[2] = target: I58Q/I62Q serum resistance associated protein (SRA), His-tagged (Trypanosoma brucei rhodesiense); assay: pull-down of in vitro synthesized [35S]-apoL-I with mutant His-SRA on Ni-NTA beads, scintillation counting

Substance	binding (%) [1] [%]	binding (%) [2] [%]
[35S]-apoL-I L345Y/L352A/Y354L point mutant, with C-terminal V5 tag (from UniProt O14791 16-398)	67	–
[35S]-apoL-I truncated version ending at aa 342, with C-terminal V5 tag (from UniProt O14791 28-342)	5	–
[35S]-apoL-I truncated version ending at aa 355, with C-terminal V5 tag (from UniProt O14791 28-355)	24	–
in vitro synthesized [35S]-apoL-I, wild type, with C-terminal V5 tag (from UniProt O14791 16-398)	–	50
